Source: patent publication US20200317739

Experiments:
[1] = tested on: truncated FBP1^1-371 protein
[2] = tested on: truncated FBP1^1-443 protein
[3] = tested on: truncated FBP1^185-443 protein
[4] = tested on: truncated FBP1^185-644 protein
[5] = tested on: truncated FBP1^372-644 protein

With “purified recombinant EV71 viral protease wild-type 2A^pro” the “in vitro proteinase cleavage assay (10 ug 2A^pro, 37 C, 4 hours)” value (FBP1-G345-362K) was “in vitro 2A^pro cleavage occurs on mutant FBP1-G345-362K”, the “in vitro proteinase cleavage assay (10 ug 2A^pro, 37 C, 4 hours)” value (FBP1-G364-380K) was “but not on mutant FBP1-G364-380K” and the “in vitro proteinase cleavage assay (10 ug 2A^pro, 37 C, 4 hours)” value (FBP1-G364K) was “in comparison with FBP1-G364K, FBP1-G366K, FBP1-G374K and FBP1-G375K, FBP1-G371K could not be cleaved by 2A^pro”. For the same substance, the “in vitro proteinase cleavage assay (10 ug 2A^pro, 37 C, 4 hours)” value (FBP1-G366K) was “in comparison with FBP1-G364K, FBP1-G366K, FBP1-G374K and FBP1-G375K, FBP1-G371K could not be cleaved by 2A^pro”, the “in vitro proteinase cleavage assay (10 ug 2A^pro, 37 C, 4 hours)” value (FBP1-G371K) was “FBP1-G371K could not be cleaved by 2A^pro, as shown by the absence of Cp-N and Cp-C cleavage products” and the “in vitro proteinase cleavage assay (10 ug 2A^pro, 37 C, 4 hours)” value (FBP1-G374K) was “in comparison with FBP1-G364K, FBP1-G366K, FBP1-G374K and FBP1-G375K, FBP1-G371K could not be cleaved by 2A^pro”. The “in vitro proteinase cleavage assay (10 ug 2A^pro, 37 C, 4 hours)” value (FBP1-G375K) was “in comparison with FBP1-G364K, FBP1-G366K, FBP1-G374K and FBP1-G375K, FBP1-G371K could not be cleaved by 2A^pro”, the “in vitro proteinase cleavage assay of truncated FBP1 proteins” value [1] was “both truncated FBP1^1-371 and FBP1^372-644 proteins were not cleaved by 2A^pro” and the “in vitro proteinase cleavage assay of truncated FBP1 proteins” value [2] was “FBP1^1-443, FBP1^185-644 and FBP1^185-443 containing the Gly-371 cleavage site were cleaved by 2A^pro; a 38-kDa cleavage product was yielded from FBP1^1-443”. The “in vitro proteinase cleavage assay of truncated FBP1 proteins” value [3] was “FBP1^1-443, FBP1^185-644 and FBP1^185-443 containing the Gly-371 cleavage site were cleaved by 2A^pro; 19-kDa cleavage product”, the “in vitro proteinase cleavage assay of truncated FBP1 proteins” value [4] was “FBP1^1-443, FBP1^185-644 and FBP1^185-443 containing the Gly-371 cleavage site were cleaved by 2A^pro; 19-kDa cleavage product, and FBP1^185-644 also yielded a 33-kDa product” and the “in vitro proteinase cleavage assay of truncated FBP1 proteins” value [5] was “both truncated FBP1^1-371 and FBP1^372-644 proteins were not cleaved by 2A^pro”. For the same substance, the “in vitro proteinase cleavage kinetics of [35S] methionine-labeled FBP1 (data not shown)” value (wild-type FBP1 protein) was “Cp-N and Cp-C were detected after 15 minutes of incubation with 2A^pro, and the levels of Cp-N and Cp-C increased over the 4 hours of incubation” and the “in vitro proteinase cleavage of [35S] methionine-labeled FBP1 (SDS-PAGE, autoradiography)” value (wild-type FBP1 protein) was “FBP1 was cleaved by 2A^pro in a dose-dependent manner that resulted in two major Cps, a 38-kDa Cp designated as Cp-N, and a 33-kDa Cp designated as Cp-C”.
